Measured values from the RNAGym collection of RNA variant scans (doi:10.1073/pnas.2313332121).
This sample holds only a part of the variants without activity.

B1: TPR 5TU (parent)
chain: GGAUCUUCUCGAUCUAACAAAAAAGACAAAUCUGCCACAAAGCUUGAGAGCAUCUUCGGAUGCAGAGGCGGCAGCCUUCGGUGGCGCGAUAGCGCCAACGUUCUCAACUAUGACACGCAAAACGCGUGCUCCGUUGAAUGGAGUUUAUCAUG

Variants of: B1
Assay: polymerase ribozyme fitness, log enrichment relative to wild type (log ratio); higher = more active; in vitro selection for triplet polymerase activity
Procedure, shortened: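 In triplicate, a single round of in vitro selection was run on each mutant library, PCR-built and transcribed, covering one subunit of a heterodimeric triplet polymerase ribozyme. Frozen incubation at −7 °C followed annealing with a biotinylated primer, partner subunit and triplets, and extended constructs were then gel-excised, streptavidin-captured and taken through RT-PCR. Fitness is the logarithm of genotype enrichment over wild-type enrichment, from inverse-variance-weighted replicate averages of Illumina-sequenced inputs and outputs. […] only genotypes with ≥10 input reads and ≥1 read per output were kept.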

| Variant | polymerase ribozyme fitness (log ratio) |
| --- | --- |
| GGAUCUUCUCGAUCUAACAAAAAAGACAAAUCUGCCACAAAGCUUGAGAGCAUCUUCGGAUGCAGAGGCGGCAGCCUUCGGUGGCGCGAUACCGCCAACGUUCCCAACUAUGACACGCAAAACGCGUGCUCCGUUGAAUGGAGUUUAUCAUG [G92C U104C] | -1.35 |
| GGAUCUUCUCGAUCUAACAAAAAAGACAAAUCUGCCACAAAGCUUGAGAGCAUCUUCGGAUGCAGAGGCGGCAGCCUUCGGUGGCGCGAUACCGCCAACGUUCGCAACUAUGACACGCAAAACGCGUGCUCCGUUGAAUGGAGUUUAUCAUG [G92C U104G] | -1.85 |
| GGAUCUUCUCGAUCUAACAAAAAAGACAAAUCUGCCACAAAGCUUGAGAGCAUCUUCGGAUGCAGAGGCGGCAGCCUUCGGUGGCGCGAUACCGCCAACGUUCUCAACUAUGACACGCAAAACGCGUGCUCCGUUGAAAGGAGUUUAUCAUG [G92C U139A] | -4.2 |
| GGAUCUUCUCGAUCUAACAAAAAAGACAAAUCUGCCACAAAGCUUGAGAGCAUCUUCGGAUGCAGAGGCGGCAGCCUUCGGUGGCGCGAUAACGCCAACGUUCACCAAUAUGACACGCAAAACGCGUGCUCCGUUGAAUGGAGUUUAUCAUG [G92A U104A A106C C108A] | ≤ -4.2 |
| GGAUCUUCUCGAUCUAACAAAAAAGACAAAUCUGCCACAAAGCUUGAGAGCAUCUUCGGAUGCAGAGGCGGCAGCCUUCGGUGGCGCGAUACCGCCAACGUUCUCAACUAUGACAGGCAAAACGCGUGCUCCGUUGAAUGGAGUUUAUCAUG [G92C C116G] | -1.52 |
| GGAUCUUCUCGAUCUAACAAAAAAGACAAAUCUGCCACAAAGCUUGAGAGCAUCUUCGGAUGCAGAGGCGGCAGCCUUCGGUGGCGCGAUACCGCCAACGUUCUCAACUAUGACUCGCAAAACGCGUGCUCCGUUGAAUGGAGUUUAUCAUG [G92C A115U] | -1.86 |
| GGAUCUUCUCGAUCUAACAAAAAAGACAAAUCUGCCACAAAGCUUGAGAGCAUCUUCGGAUGCAGAGGCGGCAGCCUUCGGUGGCGCGAUAACGCCAACGUUCUCAACUAUGACACGCAAAACGCGUGCUCCGUUGAAUGGAGCUUUUCAUG [G92A U144C A147U] | -3.46 |
| GGAUCUUCUCGAUCUAACAAAAAAGACAAAUCUGCCACAAAGCUUGAGAGCAUCUUCGGAUGCAGAGGCGGCAGCCUUCGGUGGCGCGAUAUCGCCCACGUUCUCAACUAUGACACGCAAAACGCGUGCUCCGUUGAAUGGAGUUUAUCAUG [G92U A97C] | -0.00996 |
| GGAUCUUCUCGAUCUAACAAAAAAGACAAAUCUGCCACAAAGCUUGAGAGCAUCUUCGGAUGCAGAGGCGGCAGCCUUCGGUGGCGCGAUACCGCCAACGUUCUCAACUAUGACACGCAAAACUCGUGCUCCGUUGAAUGGAGUUUAUCAUU [G92C G124U G152U] | -3.69 |
| GGAUCUUCUCGAUCUAACAAAAAAGACAAAUCUGCCACAAAGCUUGAGAGCAUCUUCGGAUGCAGAGGCGGCAGCCUUCGGUGGCGCGAUACCGCCAACGUUAUCAACUAUGACACGCAAAACGCGUGCUCCGUUGAAUGGAGUUUAUCAUG [G92C C103A] | -3.4 |
| GGAUCUUCUCGAUCUAACAAAAAAGACAAAUCUGCCACAAAGCUUGAGAGCAUCUUCGGAUGCAGAGGCGGCAGCCUUCGGUGGCGCGAUAACGCCAACGUUCUCAACUAUGACACCCAAAACGCGUGCUCCGUUGAAUGGAGUUUAUCAUG [G92A G117C] | -2.82 |
| GGAUCUUCUCGAUCUAACAAAAAAGACAAAUCUGCCACAAAGCUUGAGAGCAUCUUCGGAUGCAGAGGCGGCAGCCUUCGGUGGCGCGAUAACGCCAACGUUCUCAACUAUGACACGCAAAACGCGUGCUCCGUUCAAUGGAGUUUAUCAUG [G92A G136C] | -3.83 |
| GGAUCUUCUCGAUCUAACAAAAAAGACAAAUCUGCCACAAAGCUUGAGAGCAUCUUCGGAUGCAGAGGCGGCAGCCUUCGGUGGCGCGAUACCGCCAACGUUCUCAACUACGACACGCAAAACGCGUGCUCCGUUGAAUGGAGUUUAUCAUG [G92C U111C] | -3.45 |
| GGAUCUUCUCGAUCUAACAAAAAAGACAAAUCUGCCACAAAGCUUGAGAGCAUCUUCGGAUGCAGAGGCGGCAGCCUUCGGUGGCGCGAUAACGCCAACGGUCUCAACUAUGACACGCAAAACGCGUGCUCCGUUGAAUGGAGUUUAUUAUG [G92A U101G C149U] | -3.56 |
| GGAUCUUCUCGAUCUAACAAAAAAGACAAAUCUGCCACAAAGCUUGAGAGCAUCUUCGGAUGCAGAGGCGGCAGCCUUCGGUGGCGCGAUACCGCCAACGUUCUCAACUAUGACACGCAAAACGCGUGCUCCGUUGAAUGGUGUUUAUCAUG [G92C A142U] | -2.07 |
| GGAUCUUCUCGAUCUAACAAAAAAGACAAAUCUGCCACAAAGCUUGAGAGCAUCUUCGGAUGCAGAGGCGGCAGCCUUCGGUGGCGCGAUACCGCCAGCGUUCUCAACUAUGACUCGCAAAACGCGUGCUCCGUUGAAUGGAGUUUAUCAUG [G92C A98G A115U] | -2.44 |
| GGAUCUUCUCGAUCUAACAAAAAAGACAAAUCUGCCACAAAGCUUGAGAGCAUCUUCGGAUGCAGAGGCGGCAGCCUUCGGUGGCGCGAUACCGCCAACGUUCUUAACUAUGACACGCAAAACGCGUGCUCCGUUGAAUGGAGUUUAUCAUG [G92C C105U] | -0.217 |
| GGAUCUUCUCGAUCUAACAAAAAAGACAAAUCUGCCACAAAGCUUGAGAGCAUCUUCGGAUGCAGAGGCGGCAGCCUUCGGUGGCGCGAUACCGCCAACGUUCUGAACUAUGACACGCAAAACGCGUGCUCCGUUGAAUGGAGUUUAUCAUG [G92C C105G] | -2.39 |
| GGAUCUUCUCGAUCUAACAAAAAAGACAAAUCUGCCACAAAGCUUGAGAGCAUCUUCGGAUGCAGAGGCGGCAGCCUUCGGUGGCGCGAUAACGCCAACGUUCUCAACUAUGACACGCAAAACGCGAGCUCCGUUGAAUGGAGUUUAUCUUG [G92A U127A A150U] | -4.1 |

| Variant | polymerase ribozyme fitness (log ratio) |
| --- | --- |
| GGAUCUUCUCGAUCUAACAAAAAAGACAAAUCUGCCACAAAGCUUGAGAGCAUCUUCGGAUGCAGAGGCGGCAGCCUUCGGUGGCGCGAUACCGCCAACGGUCUCAACUAUGACACGCAAAACGCGUGCUCCGUUGAAUGGAGUUUAUCAUG [G92C U101G] | -0.874 |
| GGAUCUUCUCGAUCUAACAAAAAAGACAAAUCUGCCACAAAGCUUGAGAGCAUCUUCGGAUGCAGAGGCGGCAGCCUUCGGUGGCGCGAUAACGCCAACGUUCUCAACUAUGACACGCAAAACGCGAGCUCCGUUGAAUGGAGUUUAUCAUG [G92A U127A] | -3.83 |
| GGAUCUUCUCGAUCUAACAAAAAAGACAAAUCUGCCACAAAGCUUGAGAGCAUCUUCGGAUGCAGAGGCGGCAGCCUUCGGUGGCGCGAUAACGCCAACGUUCUCAACUAUGACACGCAAAACGCGGGCUCCGUUGAAUGGAGUUUAUCAUG [G92A U127G] | -3.27 |
| GGAUCUUCUCGAUCUAACAAAAAAGACAAAUCUGCCACAAAGCUUGAGAGCAUCUUCGGAUGCAGAGGCGGCAGCCUUCGGUGGCGCGAUACCGCCAACGGUCUCAACUAUGACACCCAAAACGCGUGCUCCGUUGAAUGGAGUUUAUCAUG [G92C U101G G117C] | -1.52 |
| GGAUCUUCUCGAUCUAACAAAAAAGACAAAUCUGCCACAAAGCUUGAGAGCAUCUUCGGAUGCAGAGGCGGCAGCCUUCGGUGGCGCGAUAACGCCAACGUUCUCAACUAUGACACGCAAAACCCGUGCUCCGUUGAAUGGAGUUUAUCAUG [G92A G124C] | -3.03 |
| GGAUCUUCUCGAUCUAACAAAAAAGACAAAUCUGCCACAAAGCUUGAGAGCAUCUUCGGAUGCAGAGGCGGCAGCCUUCGGUGGCGCGAUACCGCCAACGUUCUCAACUAUGACACGCAAAACGCGUGCUCCGUUGAAUGAAGUUUAUCAUG [G92C G141A] | -0.778 |
| GGAUCUUCUCGAUCUAACAAAAAAGACAAAUCUGCCACAAAGCUUGAGAGCAUCUUCGGAUGCAGAGGCGGCAGCCUUCGGUGGCGCGAUAACGCCAACGUUCUCAACUAUGACACGCAAAACGCGUGCUCCGUAGAAUGGAGUCUAUCAUG [G92A U135A U145C] | -3.89 |
| GGAUCUUCUCGAUCUAACAAAAAAGACAAAUCUGCCACAAAGCUUGAGAGCAUCUUCGGAUGCAGAGGCGGCAGCCUUCGGUGGCGCGAUACCGCCAACGUUCUCAACUAUGACACGCAAAACGCGUGCUCUGUUGAAUGGAGUUUAUCAUG [G92C C132U] | -1.6 |
| GGAUCUUCUCGAUCUAACAAAAAAGACAAAUCUGCCACAAAGCUUGAGAGCAUCUUCGGAUGCAGAGGCGGCAGCCUUCGGUGGCGCGAUACCGCCAACGUUCUCAACUAUGACACGCAAAACGCGUGCUCCGUGGAAUGGUGUUUAUCAUG [G92C U135G A142U] | -4.1 |
| GGAUCUUCUCGAUCUAACAAAAAAGACAAAUCUGCCACAAAGCUUGAGAGCAUCUUCGGAUGCAGAGGCGGCAGCCUUCGGUGGCGCGAUAACGCCAACCUUCUCAACUAUGACACGCAAAACGCGUGCUCCGUUGAAUGGAGUUUAUCAUG [G92A G100C] | -4.07 |
| GGAUCUUCUCGAUCUAACAAAAAAGACAAAUCUGCCACAAAGCUUGAGAGCAUCUUCGGAUGCAGAGGCGGCAGCCUUCGGUGGCGCGAUAACGCCAACGUUCUCAACUAUGACACGCAAAACGCGUGCUCCGUUGAAUGCAGUUUAUCAUG [G92A G141C] | -3.71 |
| GGAUCUUCUCGAUCUAACAAAAAAGACAAAUCUGCCACAAAGCUUGAGAGCAUCUUCGGAUGCAGAGGCGGCAGCCUUCGGUGGCGCGAUAACGCCAACGUUCUCAACUAUGACACGCAAAACGCGUGCUCCGUUGAAUGAAGUUUAUCAUG [G92A G141A] | -2.48 |
| GGAUCUUCUCGAUCUAACAAAAAAGACAAAUCUGCCACAAAGCUUGAGAGCAUCUUCGGAUGCAGAGGCGGCAGCCUUCGGUGGCGCGAUACCGCCAACGUUCUCAACUAUGACACGCAAAACUCGUGUUCCGUUGAGGGGAGUUUAUCAUG [G92C G124U C129U A138G U139G] | ≤ -4.2 |
| GGAUCUUCUCGAUCUAACAAAAAAGACAAAUCUGCCACAAAGCUUGAGAGCAUCUUCGGAUGCAGAGGCGGCAGCCUUCGGUGGCGCGAUAACGCCAACGUUCGCAACUGUGACACGCAAAACGCGUGCUCCGUUGAAUGGAGUUUAUCAUG [G92A U104G A110G] | -3.8 |
| GGAUCUUCUCGAUCUAACAAAAAAGACAAAUCUGCCACAAAGCUUGAGAGCAUCUUCGGAUGCAGAGGCGGCAGCCUUCGGUGGCGCGAUACCGCCAACGUUCUCAACUAUGACACGCAAAACGCGUGCUCCGUUGAAUGGAGUUUAUCAUG [G92C] | -0.459 |
| GGAUCUUCUCGAUCUAACAAAAAAGACAAAUCUGCCACAAAGCUUGAGAGCAUCUUCGGAUGCAGAGGCGGCAGCCUUCGGUGGCGCGAUAUCGCCAACGUUCUCAACUAUGACACGCAAAACGCGUGCUCCGUUGAAUGGAGUUUAUCAUG [G92U] | -0.671 |
| GGAUCUUCUCGAUCUAACAAAAAAGACAAAUCUGCCACAAAGCUUGAGAGCAUCUUCGGAUGCAGAGGCGGCAGCCUUCGGUGGCGCGAUACCGCCAACGUUCUCAACUAUGACACGCAAAACGCGUGCUCCGGUGAAUGGAGUUUAUCAUG [G92C U134G] | -1.68 |
| GGAUCUUCUCGAUCUAACAAAAAAGACAAAUCUGCCACAAAGCUUGAGAGCAUCUUCGGAUGCAGAGGCGGCAGCCUUCGGUGGCGCGAUACCGCCAACGUUCUCAACUAUGACACGCAAAACGCGUGCUCCGUUGAAUGGAGUUAAUCAUG [G92C U146A] | -0.323 |
| GGAUCUUCUCGAUCUAACAAAAAAGACAAAUCUGCCACAAAGCUUGAGAGCAUCUUCGGAUGCAGAGGCGGCAGCCUUCGGUGGCGCGAUAACGCCAACGUUCUCAACUAUGACACGCAAAACGCGUGCUCCGUUGAAUGGAGUUUACCAUG [G92A U148C] | -4.02 |
